{
  "source": "the nanobody polyreactivity screen of Harvey et al. (2022)",
  "data": [
    {"test": "yeast display, Sf9 membrane polyspecificity reagent, FACS + sequencing; frameworks hold sequencing errors", "summary_of_the_method": "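Sorting gates, low and high (top ~1%), were placed on anti-HA fluorescence to track expression and on streptavidin fluorescence to track reagent binding. A clone's polyreactivity label is taken from the gate it came out of. The reagent was 10% biotinylated, detergent-solubilized Sf9 membrane, applied for 1 hour at 4 °C to galactose-induced yeast display cells.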", "values": [
      {"sequence": "QVQLVESGGRLVQAGGSLRLSGAASGITLGTYLMGWYRQAPGKEREMLAAISSGGSTYYADSVKGRFTISRDNAKNTVFLQMNSLKPEDTAVYYCAAQYYPYYDSRVSYDYWGQGTQVTVSS", "polyreactivity (PSR sort gate)": "low polyreactivity"},
      {"sequence": "QVQLVESGGRLVQAGGSLRLSSAASGGTFYRNARGWYRQAPGKERELVASISRTGGSTYYADSVKGRFTISRDNAKNTVYLQMNSLKQVDTAVYYCAKKQPRYSYFDNDYWGQGTQVTVSS", "polyreactivity (PSR sort gate)": "high polyreactivity"},
      {"sequence": "QVQLVESGGRLVQAGGSLRLTCAASGSTFSRYAMGWSRQAPGKERELVAAITGSGGNTYYADSVKGRFTISRDNAKNTVYLQMNSLKPEDTAVYYCAAEDYVGWYNFEYWGQGTQVTVSS", "polyreactivity (PSR sort gate)": "high polyreactivity"},
      {"sequence": "QVQLVESGGRLVQAGGSLRLTCAASGSTFTTYAMGWSRQAPGKERELVAAITSGSSTNYADSVKGRFTISRDNAKNTVYLQMNSLKPEDTAVYYCAVDREWPGYYYAISKMYYWGQGTQVTVSS", "polyreactivity (PSR sort gate)": "low polyreactivity"},
      {"sequence": "QVQLVESGGRLVQAGGSLRLTCDASGRTFDYNAMGWYRQAPWKERQLVAAITSRGGSTYYADSVKGRFTISRDNAKNTVYLQMNSLKPEDTAVYYCAAQHSVLAYFEYDYWGQGTQVTVSS", "polyreactivity (PSR sort gate)": "low polyreactivity"},
      {"sequence": "QVQLVESGGRLVQAGRSLRLSCAASGRTLKQYVMGWYRQAPGKERELVAAISRRGSSTYYADSVKGRFTISRDNAKNTVYLQMYSLKPEDTAVYYCAAPVYTTRHITAAYEEYGYWGQGTQVNVSS", "polyreactivity (PSR sort gate)": "high polyreactivity"},
      {"sequence": "QVQLVESGGRLVQSGGSLRLSCAASGRIFLYYTMGWYRQAPGKERELVATIRSGDSTNYADSVKGRFTISRDNAKNTVYLQMNSLKPEVTAVYYCAADWDIFQQGANGAPYDYWGQGTQVTVSS", "polyreactivity (PSR sort gate)": "low polyreactivity"},
      {"sequence": "QVQLVESGGSLVQAGGSHRLSCAASRSIFPPYAMGWYRPAAGKERELVAAITLRGGSTYYADSVKGRFTISRDNAKNTVYLQMNSLKPEDTAVYYCAAYKSAREYYWGQGTQVTVSS", "polyreactivity (PSR sort gate)": "high polyreactivity"},
      {"sequence": "QVQLVESGGSLVQAGGSLRLICAASGITFWPYAMGWYRPAPGKERELVAAINSGGDTYYADSVKGRFTISRDNAKNSVYLQMNILKPEDTAVYYCAKGRDWADEEGYEYWGQGTQVTVSS", "polyreactivity (PSR sort gate)": "low polyreactivity"},
      {"sequence": "QVQLVESGGSLVQAGGSLRLSCAASGYTIDSYGMGWYRQAPGKERELVAPIDWSGGSTYYADSVKGRFTIARDTAKNTVYLQKNSLIPDDSAVYYCNRDSAGPGDVILAYTGNDYWGQGTQVTVSS", "polyreactivity (PSR sort gate)": "low polyreactivity"},
      {"sequence": "QVQLVESGGSLVQSGGSLRLSCAASGSIFYRNAMGWYRQEPGKERELVASITSGGRTNYADSVKGRFTISRDNAKNTVYLQMNSLKPEDTAVYYCARGRASYTKSGPTPYTGYGYWGQGTQVTVSS", "polyreactivity (PSR sort gate)": "low polyreactivity"},
      {"sequence": "QVQLVESGGVLDQARGSLRLSCAASGRIFGYNAMGWYRQAPGKERELVAAISWGGGRTYYADSVKGRFTISRDNAKNTVYLQMNSLKPEDTAVYYCNALYVGYYDSMGYWGQGTQVTVSS", "polyreactivity (PSR sort gate)": "high polyreactivity"},
      {"sequence": "QVQLVESGGVLDQGGGSLRLSCASSGITYRRYAMGWYRQAPGKERELVAANTYGGGSTYYADSVKGRFTISRDNAKNTVYLQMNSLKPADTAVFYCYARYSGGFGGGSKPDYYWGQGTQVTVAS", "polyreactivity (PSR sort gate)": "high polyreactivity"},
      {"sequence": "QVQLVESGGVLVQAGCSLRLSCAASGRTIPWYTMGWYRQAPRKERELVAAISNGGSTYYADSVKGRFTISRDNAKNTVYLQMNSLIPEDTAVYYCNSLVYKYIYNYDYWGQGTQVTVSS", "polyreactivity (PSR sort gate)": "high polyreactivity"},
      {"sequence": "QVQLVESGGVLVQAGGILRLSCAASGNIVVYYAMGWSRQAPGKERELVASITTSGGSTYYADSVKGRFTISRDNATNTVYFQMNSLKPEDTAVYYCAALYYYWLYYWGQGTQVTVSW", "polyreactivity (PSR sort gate)": "low polyreactivity"},
      {"sequence": "QVQLVESGGVLVQAGGRLGLSCAASGSTLRAYAMGWYRQATGKVRELVATISSGGRTYYADSVKGRFTISRDNAKNTVYLQMNSLKPEDTAVYYSAKREHGFFYYTYDYWGQGTQVTVSS", "polyreactivity (PSR sort gate)": "low polyreactivity"},
      {"sequence": "QVQLVESGGVLVQAGGRLSLICAASGRTFARYVMGWYRKAPGKERELVAAINSGGTTYYADSVKGRFTISRDNAKNTVYLQMNSLKPEDTAVYYCNARRGHYAYDYWGQGTQVTVSS", "polyreactivity (PSR sort gate)": "high polyreactivity"},
      {"sequence": "QVQLVESGGVLVQAGGSLRLSCAASGFIFETYVMGWYRQAPGKERELVDAISGGGSTYYADSVKGRFTISRDNAKKTVYLQMNSLKPEDTAVYYCAAKSGSFVHGGYQTPVYGSDYWGQGTQVTVSS", "polyreactivity (PSR sort gate)": "high polyreactivity"},
      {"sequence": "QVQLVESGGVLVQAGGSLRLSCAASGFIFYSYDMGWYRQAPGKERELDAAIRSDGSTYYADTVKGRFTISRDNAKNTVYLQMYSLKPEDTAVYDCAAKYGVRYWHYYSWTNDYWGQGTQVTVSS", "polyreactivity (PSR sort gate)": "low polyreactivity"},
      {"sequence": "QVQLVESGGVLVQAGGSLRLSCAASGFTFQAYTMGWYRQAPVKERELVAAISRSGGRTYYADSVKGRFTISRDNAKNTVYLQMNSLKPEDTAVYYCAKRTTYSDDYWGQGTQVTVSS", "polyreactivity (PSR sort gate)": "high polyreactivity"},
      {"sequence": "QVQLVESGGVLVQAGGSLRLSCAASGIIFFYNAMGWYRQAPGKERELVAAISARGGRTYYADSVKGRFTISRDNAKNTVYLQMNSLKPEDTAVYYCNAYRYGWEDMDYWGQGTQVTVSS", "polyreactivity (PSR sort gate)": "high polyreactivity"},
      {"sequence": "QVQLVESGGVLVQAGGSLRLSCAASGIIYYGYAMGWYRQAPRKERELVAAISRSGGSTYYADSVKGRFTISRDNAMNTVYFLMNSLKPEDTAVYYCAALVRTTSSYRYNFWGQGTQVTVSS", "polyreactivity (PSR sort gate)": "high polyreactivity"},
      {"sequence": "QVQLVESGGVLVQAGGSLRLSCAASGLIFATYAMGWSRQAPGKERELVAAISSNGDRTYYADSVKGGFTISRDNAKNTVYLQMNCLKPEDTAVYYCARLYLVQSRYPEMDFWGQGTQVTVSS", "polyreactivity (PSR sort gate)": "high polyreactivity"},
      {"sequence": "QVQLVESGGVLVQAGGSLRLSCAASGLIFSRYVMGWYRQAPGKERELVAAISRSGGSTYYADSVKGRFTISRDNAKNTVYLQMNSLKPEDTAVYYCNKLAPAPEADDYWGQGTQLTVSS", "polyreactivity (PSR sort gate)": "high polyreactivity"},
      {"sequence": "QVQLVESGGVLVQAGGSLRLSCAASGLTFGGNAKGWYRPAPGKERELVAAISWSDDTTDYADSVKGRFTISRDNAKNTVYLQMNSLKPEDTAVYYCAARLPFEYVDYWGQGTQVTVSS", "polyreactivity (PSR sort gate)": "low polyreactivity"},
      {"sequence": "QVQLVESGGVLVQAGGSLRLSCAASGLTFKWYAMGWYRQAPGKERELVAAITKSGGTTYADSVKGRFTISRDNAKNTVYLQMNSLKPEDTAVYYCAARYWRLWNTVRYEGDFSDGYWGQGTQVTVSS", "polyreactivity (PSR sort gate)": "high polyreactivity"},
      {"sequence": "QVQLVESGGVLVQAGGSLRLSCAASGNIFYAYAMGWYRQAPGKERELVAAISWSGDSTYYADSVKGRFTISRDNAKNTVNLQMNSLKPEETAVEYCAADSYRFYSGYYYWGQGTQVTVSS", "polyreactivity (PSR sort gate)": "low polyreactivity"},
      {"sequence": "QVQLVESGGVLVQAGGSLRLSCAASGRIFRYYAMGWYRQAPGKERELVAAISSDGSTDYADSVKGRFTISRDNAKNTVYLLMNSLKPEDTAVYYCAASVVSYGHDYWGQGTQVTVSS", "polyreactivity (PSR sort gate)": "low polyreactivity"},
      {"sequence": "QVQLVESGGVLVQAGGSLRLSCAASGRIFSSYAMGWNRHAPGKERELVATSRRADSTYYADSVKGRFTISRDNAKNTVYLQMNSLKPEDTAVYYCAADTRLSRLIHRYDYWGQGTQVTVSS", "polyreactivity (PSR sort gate)": "low polyreactivity"},
      {"sequence": "QVQLVESGGVLVQAGGSLRLSCAASGRTFFNYAMGWYRQAPGKESEFVASISWSDVITYYADSVKGRFTISRDNAKNTVYLQMNSLKQEDTAVYYCAASKVGGGEEYWGQGTQVTVSS", "polyreactivity (PSR sort gate)": "low polyreactivity"},
      {"sequence": "QVQLVESGGVLVQAGGSLRLSCAASGRTFFRYTMGWYRPAPGKERELVAAISRSDGSTYYADSVKGRFTISRDNAKNTVYLQMNSLKPEDTAVYYCAKSLPSGYYYWGQGTQVTVSS", "polyreactivity (PSR sort gate)": "low polyreactivity"},
      {"sequence": "QVQLVESGGVLVQAGGSLRLSCAASGRTFLYNAMGWYRQAPGKERELVAAISSRGARTYYADSVKGRFTISRDNAKKTVYLQMNSLKPEDTAVYYCAASYTTAYYRYDYWGQGTQVTVSS", "polyreactivity (PSR sort gate)": "high polyreactivity"},
      {"sequence": "QVQLVESGGVLVQAGGSLRLSCAASGRTFTPYTMGCDRPAPGKERELVAAISWSGGTTYYADSVMGRFTISRDNSKITVYLQMNSLKRVDTAVYYCAARVSRTCHGYYYFWGQGTQVTVSS", "polyreactivity (PSR sort gate)": "high polyreactivity"},
      {"sequence": "QVQLVESGGVLVQAGGSLRLSCAASGSIFGLYAMGWYRQAPGKERELVAAISRRSVSTYYADSVKGRFTISRDNAKNTVYLQMNSLKPEDTAVYYCAAVTYPYLRSQKGYDGYGYWGHGTQVTVSS", "polyreactivity (PSR sort gate)": "high polyreactivity"},
      {"sequence": "QVQLVESGGVLVQAGGSLRLSCAASGSIFGVYTMGWYRQAPGKERELVAAISGSGGSTYYADSVKGRFTISRDNAMNTVYLQMNSLKPEDTAVYYCATRFPKIPPYDSWGQGTQVTVSS", "polyreactivity (PSR sort gate)": "low polyreactivity"},
      {"sequence": "QVQLVESGGVLVQAGGSLRLSCAASGSIFTYYAMGWYRQAPGKEREFVAAISRSGGSTYYADSVKGRFTISRDNANNTVYLQMNSLKPEDTAVYYCNAYSYSDAGDDGDYWGQGTQVTVSS", "polyreactivity (PSR sort gate)": "low polyreactivity"},
      {"sequence": "QVQLVESGGVLVQAGGSLRLSCAASGSIFVPYAMGWYRQAPGKERELVAAISSGGSTNYADSVKGRFTISRDNAKNTVYLLMNSLKPEDTAVYYCAADRKYFYLWLDQEHRYYWGQGYQVTVSS", "polyreactivity (PSR sort gate)": "low polyreactivity"},
      {"sequence": "QVQLVESGGVLVQAGGSLRLSCAASGSISFNAMGWYRQAPGKERELVAAITTSGGRTYYADSVKGRLTISRDNAKNTVSLQMNSLKPEDTAVYYCNVASKGRFARYAAEYVSWRQGTQVTVSS", "polyreactivity (PSR sort gate)": "high polyreactivity"},
      {"sequence": "QVQLVESGGVLVQAGGSLRLSCAASGSTFDSYAMGWYRQAPGKERELVAAISYGGGSTYYADSVKGRFTISRDNAKNTVYLQMNSLKPEDTAVYYCAARNARGVVGRTESKVTYDYWGQGTQVTVSS", "polyreactivity (PSR sort gate)": "high polyreactivity"},
      {"sequence": "QVQLVESGGVLVQAGGSLRLSCAASGSTFGANAMGWNREAPGKEREFVAAISGSGTTTYYADSVKGRFTISRDNAKNSVYLHLNSLKQEDTAVYYCAKTRKAHWLEYWGQGTKVTVSS", "polyreactivity (PSR sort gate)": "low polyreactivity"},
      {"sequence": "QVQLVESGGVLVQAGGSLRLSCAASGSTFGWYAMGWYRQAPGKERELVAAITSVGSTYYADYVKGRFTISRDNAKNTVYLQMNSLKPEDTAVYYCAAGWTYAYTLSLYEYWGQGTQVTVSS", "polyreactivity (PSR sort gate)": "low polyreactivity"},
      {"sequence": "QVQLVESGGVLVQAGGSLRLSCAASGSTFSTNAMGWYRQAPGKEREFVAAITWSGDSTDYADSVKGRFTISRDNAKNTVYLQMNSLKPEDTAVYYCAADFPGFYYVYPGDYWGQGTQVTVSS", "polyreactivity (PSR sort gate)": "low polyreactivity"},
      {"sequence": "QVQLVESGGVLVQAGGSLRLSCAASGSTFYGYAMGWYRQAPGKERELVAAITRSGGSTYYADSVKGRFTISRDNAKNTVYLQMNSLKPEDTAVYYCARQDRDTYYHRYYYWGQGTQVTVSS", "polyreactivity (PSR sort gate)": "high polyreactivity"}
    ]}
  ]
}
